B1: I309 (ligand, human, UniProt P22362 24-96, looked up)
chain: KSMQVPFSRCCFSFAEQEIPLRAILCYRNTSSICSNEGLIFKLKRGKEACALDTVGWVQRHRKMLRHCPSKRK
B2: NAP-2 (ligand, human, UniProt P02775 59-128, looked up)
chain: AELRCMCIKTTSGIHPKNIQSLEVIGKGTHCNQVEVIATLKDGRKICLDPDAPRIKKIVQKKLAGDESAD
B3: PF4 (ligand, human, UniProt P02776 32-101, looked up)
chain: EAEEDGDLQCLCVKTTSQVRPRHITSLEVIKAGPHCPTAQLIATLKNGRKICLDLQAPLYKKIIKKLLES

target: human CXC Chemokine Receptor 3 (CXCR3) (human) (UniProt P49682); test: cell-based or functional assay
Sequence (P49682 whole entry): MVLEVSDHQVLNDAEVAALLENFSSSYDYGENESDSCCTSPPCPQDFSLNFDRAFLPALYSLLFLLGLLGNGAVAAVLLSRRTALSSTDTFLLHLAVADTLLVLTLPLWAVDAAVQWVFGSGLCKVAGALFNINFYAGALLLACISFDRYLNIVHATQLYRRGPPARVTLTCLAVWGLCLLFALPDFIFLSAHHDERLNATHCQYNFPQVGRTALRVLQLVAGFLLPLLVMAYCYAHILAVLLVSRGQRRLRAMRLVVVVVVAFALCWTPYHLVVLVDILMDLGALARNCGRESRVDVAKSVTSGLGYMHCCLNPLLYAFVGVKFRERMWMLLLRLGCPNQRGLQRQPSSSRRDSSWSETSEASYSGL

[Ca^2+]i changes in IP-10/MigR transfectants, > 100 nM:
MIP-1α (from UniProt P10147 24-92) (ligand)
MCP-2 (from UniProt P80075 24-99) (ligand)
MIP-1β (from UniProt P13236 24-92) (ligand)
MCP-1 (from UniProt P13500 24-99) (ligand)
MCP-4 (from UniProt Q99616 24-98) (ligand)
GCP-2 (from UniProt P80162 38-114) (ligand)
RANTES (from UniProt P13501 24-91) (ligand)
eotaxin (from UniProt P51671 24-97) (ligand)
IL-8 (from UniProt P10145 28-99) (ligand)
MCP-3 (from UniProt P80098 24-99) (ligand)
GROα (from UniProt P09341 35-107) (ligand)
lymphotactin (from UniProt P47992 22-114) (ligand)
ENA78 (from UniProt P42830 37-114) (ligand)
B1
B2
B3

Source: patent publication US7407655
